According to article PMC2711571 (The Journal of Cell Biology, 2009):
Where “and” joins values, the source holds several entries; their conditions need not be identical. Equal values may be shown once.

B1: Internalin B (ligand)
chain: AKVQAETITVPTPIKQIFSDDAFAETIKDNLKKKSVTDAVTQNELNSIDQIIANNSDIKSVQGIQYLPNVTKLFLNGNKLTDIKPLANLKNLGWLFLDENKVKDLSSLKDLKKLKSLSLEHNGISDINGLVHLPQLESLYLGNNKITDITVLSRLTKLDTLSLEDNQISDIVPLAGLTKLQNLYLSKNHISDLRALAGLKNLDVLELFSQECLNKPINHQSNLVVPNTVKNTDGSLVTPEIISDDGDYEKPNVKWHLPEFTNEVSFIFYQPVTIGKAKARFHGRVTQPLKEVYTVSYDVDGTVIKTKVEAGTRITAPKPPTKQGYVFKGWYTEKNGGHEWNFNTDYMSGNDFTLYAVFKAETTEKAVNLTRYVKYIRGNAGIYKLPREDNSLKQGTLASHRCKALTVDREARNGGKLWYRLKNIGWTKAENLSLDRYDKMEYDKGVTAYARVRNASGNSVWTKPYNTAGAKHVNKLSVYQGKNMRILREAKTPITTWYQFSIGGKVIGWVDTRALNTFYKQSMEKPTRLTRYVSANKAGESYYKVPVADNPVKRGTLAKYKNQKLIVDCQATIEGQLWYRIRTSSTFIGWTKAANLRAQK

Experiments:
[1] = biological target: Human Met-Fc chimera (human) (UniProt P08581); experiment: ELISA
Human Met-Fc chimera (human), sequence (P08581 25-932, change not shown): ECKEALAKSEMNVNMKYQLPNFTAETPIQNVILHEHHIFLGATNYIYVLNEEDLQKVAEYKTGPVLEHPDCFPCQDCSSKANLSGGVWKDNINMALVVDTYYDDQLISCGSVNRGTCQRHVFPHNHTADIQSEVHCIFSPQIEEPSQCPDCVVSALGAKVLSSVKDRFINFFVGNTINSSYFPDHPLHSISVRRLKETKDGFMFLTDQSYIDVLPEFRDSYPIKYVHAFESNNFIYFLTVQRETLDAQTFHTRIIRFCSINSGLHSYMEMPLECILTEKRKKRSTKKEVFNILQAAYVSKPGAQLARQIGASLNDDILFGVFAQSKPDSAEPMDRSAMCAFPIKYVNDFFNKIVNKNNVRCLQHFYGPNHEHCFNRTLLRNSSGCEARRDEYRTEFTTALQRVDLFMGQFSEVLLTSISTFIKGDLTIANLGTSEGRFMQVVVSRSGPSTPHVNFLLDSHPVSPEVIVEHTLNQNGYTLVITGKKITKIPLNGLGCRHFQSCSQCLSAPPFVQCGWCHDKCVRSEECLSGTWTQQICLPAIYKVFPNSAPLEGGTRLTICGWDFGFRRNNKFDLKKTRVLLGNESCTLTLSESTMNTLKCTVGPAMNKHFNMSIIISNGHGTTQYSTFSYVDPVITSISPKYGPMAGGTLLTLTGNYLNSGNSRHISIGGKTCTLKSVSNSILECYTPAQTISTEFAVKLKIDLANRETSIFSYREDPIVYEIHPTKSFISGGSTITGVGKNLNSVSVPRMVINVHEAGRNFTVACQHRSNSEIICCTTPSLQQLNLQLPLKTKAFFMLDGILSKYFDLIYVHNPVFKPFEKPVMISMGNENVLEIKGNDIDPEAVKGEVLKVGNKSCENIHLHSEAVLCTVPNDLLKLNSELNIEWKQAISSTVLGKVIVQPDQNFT

[2] = biological target: Rat tail collagen type I, neutralized fibrillar (rat) (UniProt P02454); experiment: ELISA
Rat tail collagen type I, neutralized fibrillar (rat), sequence (P02454 152-1207, chain 1 of 2): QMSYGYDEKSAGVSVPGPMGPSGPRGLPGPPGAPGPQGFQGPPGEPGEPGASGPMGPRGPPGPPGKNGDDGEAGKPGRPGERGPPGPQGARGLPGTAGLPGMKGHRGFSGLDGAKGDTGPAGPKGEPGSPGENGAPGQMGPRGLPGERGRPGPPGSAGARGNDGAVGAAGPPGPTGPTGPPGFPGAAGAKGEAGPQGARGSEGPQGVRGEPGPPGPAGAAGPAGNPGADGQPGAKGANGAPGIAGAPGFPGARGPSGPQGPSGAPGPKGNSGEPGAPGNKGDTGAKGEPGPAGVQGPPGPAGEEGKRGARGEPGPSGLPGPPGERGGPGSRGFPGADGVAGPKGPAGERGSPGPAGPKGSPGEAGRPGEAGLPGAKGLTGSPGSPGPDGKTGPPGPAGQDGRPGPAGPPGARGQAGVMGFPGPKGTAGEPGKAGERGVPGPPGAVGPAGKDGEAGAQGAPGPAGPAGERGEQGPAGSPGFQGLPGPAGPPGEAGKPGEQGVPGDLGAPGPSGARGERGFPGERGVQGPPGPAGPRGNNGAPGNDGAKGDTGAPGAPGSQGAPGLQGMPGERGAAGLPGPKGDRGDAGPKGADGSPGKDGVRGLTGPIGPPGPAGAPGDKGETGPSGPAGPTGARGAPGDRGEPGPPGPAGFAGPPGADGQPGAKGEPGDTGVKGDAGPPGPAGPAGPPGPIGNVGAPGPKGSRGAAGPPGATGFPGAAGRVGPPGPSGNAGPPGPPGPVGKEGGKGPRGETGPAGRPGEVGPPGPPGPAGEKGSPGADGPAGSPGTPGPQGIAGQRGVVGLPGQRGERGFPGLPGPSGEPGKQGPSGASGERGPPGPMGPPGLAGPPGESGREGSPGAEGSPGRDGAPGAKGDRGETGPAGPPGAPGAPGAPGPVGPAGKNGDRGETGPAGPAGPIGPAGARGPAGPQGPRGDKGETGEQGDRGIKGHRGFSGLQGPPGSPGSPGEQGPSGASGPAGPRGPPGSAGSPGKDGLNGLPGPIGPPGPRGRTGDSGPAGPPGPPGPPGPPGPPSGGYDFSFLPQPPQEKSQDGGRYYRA
Rat tail collagen type I, neutralized fibrillar (rat), sequence (P02466 86-1125, chain 2 of 2, further chain): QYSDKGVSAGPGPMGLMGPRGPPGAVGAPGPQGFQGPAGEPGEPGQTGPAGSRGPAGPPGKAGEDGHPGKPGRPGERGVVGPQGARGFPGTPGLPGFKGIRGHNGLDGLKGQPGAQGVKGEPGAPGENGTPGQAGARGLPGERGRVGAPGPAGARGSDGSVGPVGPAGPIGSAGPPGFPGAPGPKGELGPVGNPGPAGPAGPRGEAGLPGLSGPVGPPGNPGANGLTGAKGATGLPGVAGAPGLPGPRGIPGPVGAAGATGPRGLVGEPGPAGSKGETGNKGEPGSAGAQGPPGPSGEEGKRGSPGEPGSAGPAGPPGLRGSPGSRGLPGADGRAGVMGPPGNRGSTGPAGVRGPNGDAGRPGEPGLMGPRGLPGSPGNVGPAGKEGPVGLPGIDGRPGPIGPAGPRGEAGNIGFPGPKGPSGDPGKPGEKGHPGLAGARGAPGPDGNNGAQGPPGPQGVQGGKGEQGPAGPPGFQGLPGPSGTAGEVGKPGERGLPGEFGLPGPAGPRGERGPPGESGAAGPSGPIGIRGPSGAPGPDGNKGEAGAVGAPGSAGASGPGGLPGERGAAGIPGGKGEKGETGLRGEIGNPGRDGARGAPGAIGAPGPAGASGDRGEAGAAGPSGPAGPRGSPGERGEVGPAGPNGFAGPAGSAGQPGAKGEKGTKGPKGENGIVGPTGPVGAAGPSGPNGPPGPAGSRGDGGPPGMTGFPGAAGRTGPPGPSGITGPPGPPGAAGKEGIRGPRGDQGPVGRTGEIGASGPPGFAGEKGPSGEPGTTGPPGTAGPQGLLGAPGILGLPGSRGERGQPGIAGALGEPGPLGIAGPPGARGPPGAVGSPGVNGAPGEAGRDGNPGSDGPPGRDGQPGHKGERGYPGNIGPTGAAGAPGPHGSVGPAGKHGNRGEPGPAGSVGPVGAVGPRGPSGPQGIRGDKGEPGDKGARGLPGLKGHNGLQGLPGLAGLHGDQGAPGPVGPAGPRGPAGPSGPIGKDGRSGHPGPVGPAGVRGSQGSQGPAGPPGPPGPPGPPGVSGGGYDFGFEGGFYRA

[3] = biological target: Met receptor (human (endogenous in HeLa)) (UniProt P08581); experiment: cross-linking + co-IP
Met receptor (human (endogenous in HeLa)), sequence (P08581 25-1390): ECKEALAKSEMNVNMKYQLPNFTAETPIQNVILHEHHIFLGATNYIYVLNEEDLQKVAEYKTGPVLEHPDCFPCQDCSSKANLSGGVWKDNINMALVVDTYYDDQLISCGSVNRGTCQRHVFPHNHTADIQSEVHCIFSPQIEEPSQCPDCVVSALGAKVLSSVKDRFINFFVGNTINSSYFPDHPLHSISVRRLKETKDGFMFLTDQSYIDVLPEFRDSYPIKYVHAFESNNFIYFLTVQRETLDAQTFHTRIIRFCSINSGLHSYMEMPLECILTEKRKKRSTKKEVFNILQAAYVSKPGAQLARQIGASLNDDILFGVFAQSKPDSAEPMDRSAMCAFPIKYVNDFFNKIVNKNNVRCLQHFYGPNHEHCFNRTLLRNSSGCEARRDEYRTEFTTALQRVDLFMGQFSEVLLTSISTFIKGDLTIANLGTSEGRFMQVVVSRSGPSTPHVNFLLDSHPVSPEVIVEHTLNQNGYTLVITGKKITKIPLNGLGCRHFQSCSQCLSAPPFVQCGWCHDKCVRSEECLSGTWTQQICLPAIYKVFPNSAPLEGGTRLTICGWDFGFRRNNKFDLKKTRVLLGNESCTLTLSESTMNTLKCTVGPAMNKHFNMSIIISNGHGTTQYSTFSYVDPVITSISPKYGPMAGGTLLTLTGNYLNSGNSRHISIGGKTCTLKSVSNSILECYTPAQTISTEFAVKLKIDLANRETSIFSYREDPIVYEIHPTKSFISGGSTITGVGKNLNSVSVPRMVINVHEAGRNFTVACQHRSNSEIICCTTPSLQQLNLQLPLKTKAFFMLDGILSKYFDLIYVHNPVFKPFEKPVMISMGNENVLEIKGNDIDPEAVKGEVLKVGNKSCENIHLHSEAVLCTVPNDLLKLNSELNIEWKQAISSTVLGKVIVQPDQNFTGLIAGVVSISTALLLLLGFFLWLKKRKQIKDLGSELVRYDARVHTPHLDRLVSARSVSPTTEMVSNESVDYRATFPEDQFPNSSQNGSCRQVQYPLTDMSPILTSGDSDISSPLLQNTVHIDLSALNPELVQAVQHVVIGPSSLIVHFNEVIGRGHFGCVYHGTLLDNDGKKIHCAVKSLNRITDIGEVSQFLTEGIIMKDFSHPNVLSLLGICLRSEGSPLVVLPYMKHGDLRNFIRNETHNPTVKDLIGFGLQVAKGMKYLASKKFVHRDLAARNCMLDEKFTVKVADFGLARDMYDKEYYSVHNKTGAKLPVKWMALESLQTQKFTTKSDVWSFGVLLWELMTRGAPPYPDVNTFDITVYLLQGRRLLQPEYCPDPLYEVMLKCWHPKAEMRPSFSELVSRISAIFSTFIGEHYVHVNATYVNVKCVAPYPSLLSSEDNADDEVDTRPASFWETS

Human Met-Fc chimera [4] = biological target: T1, Human Met-Fc chimera (human, UniProt P08581 25-932, fully glycosylated); experiment: ELISA
T1 sequence (P08581 25-932, change not shown): as the sequence (P08581 25-932, change not shown) above

Human Met-Fc chimera [5] = biological target: T1, Human Met-Fc chimera; experiment: ELISA; remark: listed apart in the source

Molecule	Kd [1]	Kd [2]	stoichiometry N [3]	Kd (Human Met-Fc chimera [4])	IC50 (Human Met-Fc chimera [5])
Decorin protein core (from UniProt P07585 31-359) (ligand)	1.5 nM	0.28 nM	1	–	–
B1	–	–	–	2.16 nM	~120 nM and ~180 nM
